Laboratory results from paper PMC6599006, “Rational design using sequence information only produces a peptide that binds to the intrinsically disordered region of p53” (Scientific Reports, 2019).

Key:
Experiment in all cases: fluorescence anisotropy
Settings in all cases: 2 mM Mg2+, 20 mM HEPES pH 7.9, 100 mM KCl, 2 mM MgCl2, 0.5 mM EDTA, 1 mM DTT, 0.2 mg/mL BSA, 5 nM 6-FAM-DNA, 25 C
[1] = test system: TetCT mutant (human)
[2] = test system: FL-p53 (thermostable, cysteine-modified mutant) (human)
[3] = test system: CoreTet mutant (human)

Row | Substance | Kd ([1]; 75 uM DP6) [nM] | Kd ([1]; no DP6) [nM] | Kd ([2]; 75 uM DP6) [nM] | Kd ([2]; 150 uM DP6) [nM] | Kd ([2]; 300 uM DP5) [nM] | Kd ([2]; 300 uM DP6) [nM] | Kd ([2]; 450 uM DP6) [nM] | Kd ([2]; 600 uM DP5) [nM] | Kd ([2]; 600 uM DP6) [nM] | Kd ([2]; no DP5 (DP5 series)) [nM] | Kd ([2]; no DP6) [nM] | Kd ([3]; 600 uM DP6) [nM] | Kd ([3]; no DP6) [nM]
1 | nspDNA (random sequence) | 340 | 110 | 32 | 57 | 55 | 90 | 130 | 61 | 160 | 49 | 24 |  | 
2 | spDNA (p21) |  |  | 9.2 | 12 | 8.5 | 20 | 22 | 5.3 | 21 | 6.6 | 7.2 | 13 | 19
